*1 amine or outer side, *2 acyl side, *3 side chain or, on linkers, in order; H or OH if unused. Where no end group is shown, it is not given here. Side-chain parts run from the residue outwards. [ ]: non-standard residue; d: D form. The star is where a group is joined. C18 diacid = O=C(O)CCCCCCCCCCCCCCCCC(=O)*; γGlu = O=C(O)[C@H](CCC(=O)[*:2])N[*:1]; NMeI = CC[C@H](C)[C@H](NC)C(=O)O; Abu = CC[C@H](N)C(=O)O; Dap = NC[C@H](N)C(=O)O; AEEA = NCCOCCOCC(=O)O

The target of assay [1] is human corticotropin-releasing factor 2a (CRF2a receptor) (human), Q13324. Nature of the assay: cell-based or functional assay.
The target in assay [2] is T1, CRF1R receptor (UniProt P34998 24-415, limits assumed).
T1 sequence (looked up): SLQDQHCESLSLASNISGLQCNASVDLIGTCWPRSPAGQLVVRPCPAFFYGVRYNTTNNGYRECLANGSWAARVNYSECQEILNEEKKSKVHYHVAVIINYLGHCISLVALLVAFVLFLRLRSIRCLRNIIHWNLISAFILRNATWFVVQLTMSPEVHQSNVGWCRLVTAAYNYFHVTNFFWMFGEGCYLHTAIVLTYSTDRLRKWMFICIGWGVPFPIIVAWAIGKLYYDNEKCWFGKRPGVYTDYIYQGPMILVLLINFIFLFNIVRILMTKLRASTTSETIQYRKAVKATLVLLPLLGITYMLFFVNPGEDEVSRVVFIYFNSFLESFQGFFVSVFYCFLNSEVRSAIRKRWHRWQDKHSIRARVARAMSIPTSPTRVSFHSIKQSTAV
Nature of the assay: cell-based or functional assay.

Chain of human corticotropin-releasing factor 2a (CRF2a receptor) (human), Q13324 (Q13324 20-411): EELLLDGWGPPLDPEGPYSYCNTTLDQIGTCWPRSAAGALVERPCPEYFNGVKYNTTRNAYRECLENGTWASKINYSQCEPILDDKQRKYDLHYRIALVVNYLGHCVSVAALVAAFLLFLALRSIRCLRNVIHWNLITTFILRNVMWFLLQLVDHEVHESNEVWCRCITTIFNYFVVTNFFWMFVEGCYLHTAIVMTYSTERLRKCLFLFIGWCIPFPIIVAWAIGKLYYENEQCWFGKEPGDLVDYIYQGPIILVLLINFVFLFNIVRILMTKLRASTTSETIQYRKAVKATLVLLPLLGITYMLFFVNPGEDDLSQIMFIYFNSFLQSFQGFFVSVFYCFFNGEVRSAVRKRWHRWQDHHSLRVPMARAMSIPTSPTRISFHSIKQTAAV

B1: SEQ ID NO 128 (peptide)
peptide: Ac-IVLSLD[dV]PIKLK([γGlu-C18 diacid])KILLEQEKQKKQREQAETN[Dap]QILAQV-NH2
SMILES: CC[C@H](C)[C@H](NC(C)=O)C(=O)N[C@H](C(=O)N[C@@H](CC(C)C)C(=O)N[C@@H](CO)C(=O)N[C@@H](CC(C)C)C(=O)N[C@@H](CC(=O)O)C(=O)N[C@@H](C(=O)N1CCC[C@H]1C(=O)N[C@H](C(=O)N[C@@H](CCCCN)C(=O)N[C@@H](CC(C)C)C(=O)N[C@@H](CCCCNC(=O)CC[C@H](NC(=O)CCCCCCCCCCCCCCCCC(=O)O)C(=O)O)C(=O)N[C@@H](CCCCN)C(=O)N[C@H](C(=O)N[C@@H](CC(C)C)C(=O)N[C@@H](CC(C)C)C(=O)N[C@@H](CCC(=O)O)C(=O)N[C@@H](CCC(N)=O)C(=O)N[C@@H](CCC(=O)O)C(=O)N[C@@H](CCCCN)C(=O)N[C@@H](CCC(N)=O)C(=O)N[C@@H](CCCCN)C(=O)N[C@@H](CCCCN)C(=O)N[C@@H](CCC(N)=O)C(=O)N[C@@H](CCCNC(=N)N)C(=O)N[C@@H](CCC(=O)O)C(=O)N[C@@H](CCC(N)=O)C(=O)N[C@@H](C)C(=O)N[C@@H](CCC(=O)O)C(=O)N[C@H](C(=O)N[C@@H](CC(N)=O)C(=O)N[C@@H](CN)C(=O)N[C@@H](CCC(N)=O)C(=O)N[C@H](C(=O)N[C@@H](CC(C)C)C(=O)N[C@@H](C)C(=O)N[C@@H](CCC(N)=O)C(=O)N[C@H](C(N)=O)C(C)C)[C@@H](C)CC)[C@@H](C)O)[C@@H](C)CC)[C@@H](C)CC)C(C)C)C(C)C
In the case of B1, in assay [1], the EC50 [nM] (cAMP) is 0.17 nM. Besides, the “Emax (% I)” value in assay [2] turned out to be 10%.

B2: SEQ ID NO 114 (peptide)
peptide: [NMeI]VLSLD[dV]PIKLK([AEEA-AEEA-γGlu-C18 diacid])KILLEQEKQKKQREQAETN[Abu]QILAQV-NH2
modifications: N-terminus assumed
SMILES: CC[C@H](NC(=O)[C@H](CC(N)=O)NC(=O)[C@@H](NC(=O)[C@H](CCC(=O)O)NC(=O)[C@H](C)NC(=O)[C@H](CCC(N)=O)NC(=O)[C@H](CCC(=O)O)NC(=O)[C@H](CCCNC(=N)N)NC(=O)[C@H](CCC(N)=O)NC(=O)[C@H](CCCCN)NC(=O)[C@H](CCCCN)NC(=O)[C@H](CCC(N)=O)NC(=O)[C@H](CCCCN)NC(=O)[C@H](CCC(=O)O)NC(=O)[C@H](CCC(N)=O)NC(=O)[C@H](CCC(=O)O)NC(=O)[C@H](CC(C)C)NC(=O)[C@H](CC(C)C)NC(=O)[C@@H](NC(=O)[C@H](CCCCN)NC(=O)[C@H](CCCCNC(=O)COCCOCCNC(=O)COCCOCCNC(=O)CC[C@H](NC(=O)CCCCCCCCCCCCCCCCC(=O)O)C(=O)O)NC(=O)[C@H](CC(C)C)NC(=O)[C@H](CCCCN)NC(=O)[C@@H](NC(=O)[C@@H]1CCCN1C(=O)[C@H](NC(=O)[C@H](CC(=O)O)NC(=O)[C@H](CC(C)C)NC(=O)[C@H](CO)NC(=O)[C@H](CC(C)C)NC(=O)[C@@H](NC(=O)[C@@H](NC)[C@@H](C)CC)C(C)C)C(C)C)[C@@H](C)CC)[C@@H](C)CC)[C@@H](C)O)C(=O)N[C@@H](CCC(N)=O)C(=O)N[C@H](C(=O)N[C@@H](CC(C)C)C(=O)N[C@@H](C)C(=O)N[C@@H](CCC(N)=O)C(=O)N[C@H](C(N)=O)C(C)C)[C@@H](C)CC
Molecule B2 registered an EC50 [nM] (cAMP) in assay [1] of 0.18 nM. For the same molecule, the “Emax (% I)” value in assay [2] worked out at 6%.

B3: SEQ ID NO 139 (peptide)
peptide: [NMeI]VLSLD[dV]PIKLK([γGlu-C18 diacid])KILLEQEKQKKQREQAETN[Abu]QILAQV-NH2
modifications: N-terminus assumed
SMILES: CC[C@H](NC(=O)[C@H](CC(N)=O)NC(=O)[C@@H](NC(=O)[C@H](CCC(=O)O)NC(=O)[C@H](C)NC(=O)[C@H](CCC(N)=O)NC(=O)[C@H](CCC(=O)O)NC(=O)[C@H](CCCNC(=N)N)NC(=O)[C@H](CCC(N)=O)NC(=O)[C@H](CCCCN)NC(=O)[C@H](CCCCN)NC(=O)[C@H](CCC(N)=O)NC(=O)[C@H](CCCCN)NC(=O)[C@H](CCC(=O)O)NC(=O)[C@H](CCC(N)=O)NC(=O)[C@H](CCC(=O)O)NC(=O)[C@H](CC(C)C)NC(=O)[C@H](CC(C)C)NC(=O)[C@@H](NC(=O)[C@H](CCCCN)NC(=O)[C@H](CCCCNC(=O)CC[C@H](NC(=O)CCCCCCCCCCCCCCCCC(=O)O)C(=O)O)NC(=O)[C@H](CC(C)C)NC(=O)[C@H](CCCCN)NC(=O)[C@@H](NC(=O)[C@@H]1CCCN1C(=O)[C@H](NC(=O)[C@H](CC(=O)O)NC(=O)[C@H](CC(C)C)NC(=O)[C@H](CO)NC(=O)[C@H](CC(C)C)NC(=O)[C@@H](NC(=O)[C@@H](NC)[C@@H](C)CC)C(C)C)C(C)C)[C@@H](C)CC)[C@@H](C)CC)[C@@H](C)O)C(=O)N[C@@H](CCC(N)=O)C(=O)N[C@H](C(=O)N[C@@H](CC(C)C)C(=O)N[C@@H](C)C(=O)N[C@@H](CCC(N)=O)C(=O)N[C@H](C(N)=O)C(C)C)[C@@H](C)CC
B3 yielded an EC50 [nM] (cAMP) in assay [1] of 0.05 nM. In addition, in assay [2], the “Emax (% I)” value was 13%.

B4: SEQ ID NO 115 (peptide)
peptide: [NMeI]VLSLD[dV]PIKLK([AEEA-AEEA-γGlu-C18 diacid])KILLEQEKQKKQREQAETN[Dap]QILAQV-NH2
modifications: N-terminus assumed
SMILES: CC[C@H](C)[C@H](NC)C(=O)N[C@H](C(=O)N[C@@H](CC(C)C)C(=O)N[C@@H](CO)C(=O)N[C@@H](CC(C)C)C(=O)N[C@@H](CC(=O)O)C(=O)N[C@@H](C(=O)N1CCC[C@H]1C(=O)N[C@H](C(=O)N[C@@H](CCCCN)C(=O)N[C@@H](CC(C)C)C(=O)N[C@@H](CCCCNC(=O)COCCOCCNC(=O)COCCOCCNC(=O)CC[C@H](NC(=O)CCCCCCCCCCCCCCCCC(=O)O)C(=O)O)C(=O)N[C@@H](CCCCN)C(=O)N[C@H](C(=O)N[C@@H](CC(C)C)C(=O)N[C@@H](CC(C)C)C(=O)N[C@@H](CCC(=O)O)C(=O)N[C@@H](CCC(N)=O)C(=O)N[C@@H](CCC(=O)O)C(=O)N[C@@H](CCCCN)C(=O)N[C@@H](CCC(N)=O)C(=O)N[C@@H](CCCCN)C(=O)N[C@@H](CCCCN)C(=O)N[C@@H](CCC(N)=O)C(=O)N[C@@H](CCCNC(=N)N)C(=O)N[C@@H](CCC(=O)O)C(=O)N[C@@H](CCC(N)=O)C(=O)N[C@@H](C)C(=O)N[C@@H](CCC(=O)O)C(=O)N[C@H](C(=O)N[C@@H](CC(N)=O)C(=O)N[C@@H](CN)C(=O)N[C@@H](CCC(N)=O)C(=O)N[C@H](C(=O)N[C@@H](CC(C)C)C(=O)N[C@@H](C)C(=O)N[C@@H](CCC(N)=O)C(=O)N[C@H](C(N)=O)C(C)C)[C@@H](C)CC)[C@@H](C)O)[C@@H](C)CC)[C@@H](C)CC)C(C)C)C(C)C
Consider B4, for which, in assay [1], the EC50 [nM] (cAMP) is 0.76 nM. Besides, the “Emax (% I)” value in assay [2] was found to be 4%.

B5: SEQ ID NO 140 (peptide)
peptide: [NMeI]VLSLD[dV]PIKLK([γGlu-C18 diacid])KILLEQEKQKKQREQAETN[Dap]QILAQV-NH2
modifications: N-terminus assumed
SMILES: CC[C@H](C)[C@H](NC)C(=O)N[C@H](C(=O)N[C@@H](CC(C)C)C(=O)N[C@@H](CO)C(=O)N[C@@H](CC(C)C)C(=O)N[C@@H](CC(=O)O)C(=O)N[C@@H](C(=O)N1CCC[C@H]1C(=O)N[C@H](C(=O)N[C@@H](CCCCN)C(=O)N[C@@H](CC(C)C)C(=O)N[C@@H](CCCCNC(=O)CC[C@H](NC(=O)CCCCCCCCCCCCCCCCC(=O)O)C(=O)O)C(=O)N[C@@H](CCCCN)C(=O)N[C@H](C(=O)N[C@@H](CC(C)C)C(=O)N[C@@H](CC(C)C)C(=O)N[C@@H](CCC(=O)O)C(=O)N[C@@H](CCC(N)=O)C(=O)N[C@@H](CCC(=O)O)C(=O)N[C@@H](CCCCN)C(=O)N[C@@H](CCC(N)=O)C(=O)N[C@@H](CCCCN)C(=O)N[C@@H](CCCCN)C(=O)N[C@@H](CCC(N)=O)C(=O)N[C@@H](CCCNC(=N)N)C(=O)N[C@@H](CCC(=O)O)C(=O)N[C@@H](CCC(N)=O)C(=O)N[C@@H](C)C(=O)N[C@@H](CCC(=O)O)C(=O)N[C@H](C(=O)N[C@@H](CC(N)=O)C(=O)N[C@@H](CN)C(=O)N[C@@H](CCC(N)=O)C(=O)N[C@H](C(=O)N[C@@H](CC(C)C)C(=O)N[C@@H](C)C(=O)N[C@@H](CCC(N)=O)C(=O)N[C@H](C(N)=O)C(C)C)[C@@H](C)CC)[C@@H](C)O)[C@@H](C)CC)[C@@H](C)CC)C(C)C)C(C)C
In assay [1], B5 registered an EC50 [nM] (cAMP) of 0.17 nM. The “Emax (% I)” value in assay [2] was 14%.

B6: SEQ ID NO 130 (peptide)
peptide: Ac-IVLSLD[dV]PIKLK([γGlu-C18 diacid])KILLEQEKQKKQREQAETNEQILAQV-NH2
SMILES: CC[C@H](C)[C@H](NC(C)=O)C(=O)N[C@H](C(=O)N[C@@H](CC(C)C)C(=O)N[C@@H](CO)C(=O)N[C@@H](CC(C)C)C(=O)N[C@@H](CC(=O)O)C(=O)N[C@@H](C(=O)N1CCC[C@H]1C(=O)N[C@H](C(=O)N[C@@H](CCCCN)C(=O)N[C@@H](CC(C)C)C(=O)N[C@@H](CCCCNC(=O)CC[C@H](NC(=O)CCCCCCCCCCCCCCCCC(=O)O)C(=O)O)C(=O)N[C@@H](CCCCN)C(=O)N[C@H](C(=O)N[C@@H](CC(C)C)C(=O)N[C@@H](CC(C)C)C(=O)N[C@@H](CCC(=O)O)C(=O)N[C@@H](CCC(N)=O)C(=O)N[C@@H](CCC(=O)O)C(=O)N[C@@H](CCCCN)C(=O)N[C@@H](CCC(N)=O)C(=O)N[C@@H](CCCCN)C(=O)N[C@@H](CCCCN)C(=O)N[C@@H](CCC(N)=O)C(=O)N[C@@H](CCCNC(=N)N)C(=O)N[C@@H](CCC(=O)O)C(=O)N[C@@H](CCC(N)=O)C(=O)N[C@@H](C)C(=O)N[C@@H](CCC(=O)O)C(=O)N[C@H](C(=O)N[C@@H](CC(N)=O)C(=O)N[C@@H](CCC(=O)O)C(=O)N[C@@H](CCC(N)=O)C(=O)N[C@H](C(=O)N[C@@H](CC(C)C)C(=O)N[C@@H](C)C(=O)N[C@@H](CCC(N)=O)C(=O)N[C@H](C(N)=O)C(C)C)[C@@H](C)CC)[C@@H](C)O)[C@@H](C)CC)[C@@H](C)CC)C(C)C)C(C)C
The molecule B6 showed an EC50 [nM] (cAMP) in assay [1] of 0.08 nM. For the same molecule, the “Emax (% I)” value in assay [2] stood at 4%.

(Values after patent US20260001928A1 (CORTERIA PHARMACEUTICALS, priority 2022, published 2026).)
